The results in this text go back to patent US20230093708A1, “PROTEIN NANOPARTICLE DESIGN AND APPLICATION” (Duke University, priority 2020, published 2023).

The nature of data set [1]: Static and dynamic light scattering (SLS/DLS) of block co-polypeptides. The format is physicochemical. Conditions: for Rh (nm) / Nagg / Rg(nm) / ρ: Table 1; for Rh (nm) / Nagg / Rg(nm): 10 μM in PBS, 15 °C; for ρ: shape factor Rg/Rh. A digest of the protocol:
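Samples at 10 μM in PBS (140 mM NaCl, 10 mM phosphate, 3 mM KCl, pH 7.4), filtered 0.45 μm, measured at 15 °C over 30°–150° in 5° steps. Rh from cumulant fit of DLS, extrapolated to zero angle. Rg and MW from partial Zimm plots of SLS.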

The nature of data set [2]: Temperature-programmed dynamic light scattering. The following applies: between 4 °C and 37 °C; micelles 20-37 °C; 10 μM in 140 mM PBS. The class given is physicochemical. As for the experimental part:
Temperature-programmed dynamic light scattering experiments were carried out using a Dynapro plate reader (Wyatt Technology; Santa Barbara, Calif.) with samples filtered through 0.45 μm Millex-GV filters. Data were collected at increments of 1° C., and the cumulant fit hydrodynamic radius was taken as the radius. The Tt was defined as the temperature at which aggregates of size hundreds of nanometers were formed.
Each block co-polypeptide was analyzed by dynamic light scattering (DLS) at several temperatures between 4° C. and 37° C. to determine the thermal stability of the micelles, and to determine their radius of hydration (Rh). […] In contrast, RLP40-ELP80 (SEQ ID NO: 84) and RLP40-ELP80-Fn3 (SEQ ID NO: 96) self-assembled into micelles with a Rh of 30 and 32 nm, respectively, between 20-37° C. (FIG. 15).
Therefore, to get a more accurate picture, we monitored the Rh as we slowly cooled the solution. We observed two different overall behaviors. [S]-40-[QHN]-40 (SEQ ID NO: 100) upon cooling underwent a clear unimer to micelle transition at ˜55° C. and a clear micelle to aggregate transition at 28° C. (FIG. 32B). A unimer to micelle transition that is temperature dependent is known as the critical micellization temperature (CMT). As we know from before, this UCST aggregation temperature is dependent on the solution concentration. [S]-80-[QHN]-40 (SEQ ID NO: 101) remained a micelle at the highest temperature we could measure with the instrument. Upon cooling the size of the aggregate increased slightly until a clear aggregate transition at 18° C.

Data set [3] relates to K562+αvβ3 cell line. As to the kind of experiment: Flow cytometry cell uptake of Alexa488-labeled micelles. The format is cell-based. Conditions: 10 μM, 37 °C, 2 hours. As for the experimental part: Approximately 1×10^8 cells were harvested from either K562 or K562+αvβ3 cell lines and resuspended into 1 mL of serum-free medium containing 10 μM of the various Fn3-decorated and control block polypeptides. LM609 antibody was also resuspended at 10 μM in serum-free medium. Micelles were prepared from a mixture of ˜10% Alexa 488 dye-labeled RLP-ELP block co-polypeptides and 90% unlabeled polypeptides on a molar basis. The cells were incubated at 37° C. with the labeled micelles for a specified time, then rinsed with 1 mL of Hanks Buffered Saline Solution (HBSS), collected by centrifugation at 500 RCF for 5 min at 20° C., and resuspended in HBSS+1% BSA. Cells were maintained on ice until they were analyzed by flow cytometry (BD Accuri C5). The cell fluorescence intensity of Alexa 488 (Green) was quantified after gating to remove cellular debris on unstained control samples.
To assess the intracellular uptake of these particles, we used a cell line stably transfected with the αvβ3 integrin. The native cell line, K562, has endogenously low levels of expression of this receptor and therefore serves as the receptor-negative control, and the un-decorated RLPXX-ELP80 micelles serve as ligand-negative controls for each type—size and shape—of micelle. […]
Background: In flow cytometry, cells or beads pass a laser one at a time.

Data set [4] in a line: Cryo-TEM micelle core size, inter-core spacing and aspect ratio. Conditions: for Spacing (nm) / Core radius (nm): Table 2, mean ± standard deviation; for Spacing (nm): inter-core spacing; for Core radius (nm): 10 μM in 140 mM PBS; for Core Diameter (nm) [n = 30] / Intra-core Spacing (nm) [n = 30]: Table 8, 15 °C, 140 mM PBS, 10 μM. The class given is physicochemical. A digest of the protocol:
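Vitrified 10 μM RLPn-ELP80 (3 s blot, chamber at 15° C., 100% humidity) imaged by cryo-TEM at 80 keV. Core size and spacing measured manually on at least 25 particles; aspect ratio from the longest straight line of a particle and its perpendicular.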

B1: RLP20-ELP80: RLP-ELP block co-polypeptide, (QYPSDGRG)20-(VPG[A:G]G)80 (protein)
chain: QYPSDGRGQYPSDGRGQYPSDGRGQYPSDGRGQYPSDGRGQYPSDGRGQYPSDGRGQYPSDGRGQYPSDGRGQYPSDGRGQYPSDGRGQYPSDGRGQYPSDGRGQYPSDGRGQYPSDGRGQYPSDGRGQYPSDGRGQYPSDGRGQYPSDGRGQYPSDGRGGAGVPGGGVPGAGVPGGGVPGAGVPGGGVPGAGVPGGGVPGAGVPGGGVPGAGVPGGGVPGAGVPGGGVPGAGVPGGGVPGAGVPGGGVPGAGVPGGGVPGAGVPGGGVPGAGVPGGGVPGAGVPGGGVPGAGVPGGGVPGAGVPGGGVPGAGVPGGGVPGAGVPGGGVPGAGVPGGGVPGAGVPGGGVPGAGVPGGGVPGAGVPGGGVPGAGVPGGGVPGAGVPGGGVPGAGVPGGGVPGAGVPGGGVPGAGVPGGGVPGAGVPGGGVPGAGVPGGGVPGAGVPGGGVPGAGVPGGGVPGAGVPGGGVPGAGVPGGGVPGAGVPGGGVPGAGVPGGGVPGAGVPGGGVPGAGVPGGGVPGAGVPGGGVPGAGVPGGGVPGAGVPGGGVPGAGVPGGGVP
Turning to B1, in data set [1], the “hydrodynamic radius (Rh)” value stood at 5.5 nm and the “Rh (nm)” value came out at 5.5 nm. For the same molecule, the “Rh (DLS at several temperatures)” value in data set [2] was ~7 nm.

B2: RLP40-ELP80: RLP-ELP block co-polypeptide forming spherical micelles (protein)
chain: QYPSDGRGQYPSDGRGQYPSDGRGQYPSDGRGQYPSDGRGQYPSDGRGQYPSDGRGQYPSDGRGQYPSDGRGQYPSDGRGQYPSDGRGQYPSDGRGQYPSDGRGQYPSDGRGQYPSDGRGQYPSDGRGQYPSDGRGQYPSDGRGQYPSDGRGQYPSDGRGQYPSDGRGQYPSDGRGQYPSDGRGQYPSDGRGQYPSDGRGQYPSDGRGQYPSDGRGQYPSDGRGQYPSDGRGQYPSDGRGQYPSDGRGQYPSDGRGQYPSDGRGQYPSDGRGQYPSDGRGQYPSDGRGQYPSDGRGQYPSDGRGQYPSDGRGQYPSDGRGGAGVPGGGVPGAGVPGGGVPGAGVPGGGVPGAGVPGGGVPGAGVPGGGVPGAGVPGGGVPGAGVPGGGVPGAGVPGGGVPGAGVPGGGVPGAGVPGGGVPGAGVPGGGVPGAGVPGGGVPGAGVPGGGVPGAGVPGGGVPGAGVPGGGVPGAGVPGGGVPGAGVPGGGVPGAGVPGGGVPGAGVPGGGVPGAGVPGGGVPGAGVPGGGVPGAGVPGGGVPGAGVPGGGVPGAGVPGGGVPGAGVPGGGVPGAGVPGGGVPGAGVPGGGVPGAGVPGGGVPGAGVPGGGVPGAGVPGGGVPGAGVPGGGVPGAGVPGGGVPGAGVPGGGVPGAGVPGGGVPGAGVPGGGVPGAGVPGGGVPGAGVPGGGVPGAGVPGGGVPGAGVPGGGVPGAGVPGGGVPGAGVPGGGVPGAGVPGGGVPGAGVPGGGVPGAGVPGGGVPGAGVPGGGVPGAGVPGGGVPGAGVPGGGVPGAGVPGGGVPGAGVPGGGVPGAGVPGGGVPGAGVPGGGVPGAGVPGGGVPGAGVPGGGVPGAGVPGGGVPGAGVPGGGVPGAGVPGGGVPGAGVPGGGVPGAGVPGGGVPGAGVPGGGVPGAGVPGGGVPGAGVPGGGVPGAGVPGGGVPGAGVPGGGVPGAGVPGGGVPGAGVPGGGVPGAGVPGGGVPGAGVPGGGVPGAGVPGGGVPGAGVPGGGVPGAGVPGGGVPGAGVPGGGVPGAGVPGGGVPGAGVPGGGVPGAGVPGGGVPGAGVPGGGVPGAGVPGGGVPGAGVPGGGVPGAGVPGGGVPGAGVPGGGVPGAGVPGGGVP
Take B2: in data set [1], the Nagg is reported as 68, the “Rg(nm)” value came to 29.9 nm, the “Rh (nm)” value is 33.3 nm and the ρ is given as 0.89. In addition, the “cell fluorescence (Geometric Mean±StDev)” value in data set [3] is recorded as 8686±8787. For the same molecule, the “Rh (DLS at several temperatures)” value in data set [2] is on record as 30 nm. Besides, in data set [4], the “core radius (cryo-TEM)” value is reported as “approximately 12.8 nm”, the “spacing between particle cores (cryo-TEM)” value was found to be 29.5 nm, the “Spacing (nm)” value is 29.5 ± 4.8 nm and the “Core radius (nm)” value was 12.8 ± 1.8 nm. Moreover, in data set [4], the “Core Diameter (nm) [n = 30]” value was 24.3 ± 2.8 nm and the “Intra-core Spacing (nm) [n = 30]” value came out at 23.6 ± 4.5 nm.

B3: RLP80-ELP80: RLP-ELP block co-polypeptide forming worm-like micelles (protein)
chain: QYPSDGRGQYPSDGRGQYPSDGRGQYPSDGRGQYPSDGRGQYPSDGRGQYPSDGRGQYPSDGRGQYPSDGRGQYPSDGRGQYPSDGRGQYPSDGRGQYPSDGRGQYPSDGRGQYPSDGRGQYPSDGRGQYPSDGRGQYPSDGRGQYPSDGRGQYPSDGRGQYPSDGRGQYPSDGRGQYPSDGRGQYPSDGRGQYPSDGRGQYPSDGRGQYPSDGRGQYPSDGRGQYPSDGRGQYPSDGRGQYPSDGRGQYPSDGRGQYPSDGRGQYPSDGRGQYPSDGRGQYPSDGRGQYPSDGRGQYPSDGRGQYPSDGRGQYPSDGRGQYPSDGRGQYPSDGRGQYPSDGRGQYPSDGRGQYPSDGRGQYPSDGRGQYPSDGRGQYPSDGRGQYPSDGRGQYPSDGRGQYPSDGRGQYPSDGRGQYPSDGRGQYPSDGRGQYPSDGRGQYPSDGRGQYPSDGRGQYPSDGRGQYPSDGRGQYPSDGRGQYPSDGRGQYPSDGRGQYPSDGRGQYPSDGRGQYPSDGRGQYPSDGRGQYPSDGRGQYPSDGRGQYPSDGRGQYPSDGRGQYPSDGRGQYPSDGRGQYPSDGRGQYPSDGRGQYPSDGRGQYPSDGRGQYPSDGRGQYPSDGRGQYPSDGRGQYPSDGRGGPGAGVPGGGVPGAGVPGGGVPGAGVPGGGVPGAGVPGGGVPGAGVPGGGVPGAGVPGGGVPGAGVPGGGVPGAGVPGGGVPGAGVPGGGVPGAGVPGGGVPGAGVPGGGVPGAGVPGGGVPGAGVPGGGVPGAGVPGGGVPGAGVPGGGVPGAGVPGGGVPGAGVPGGGVPGAGVPGGGVPGAGVPGGGVPGAGVPGGGVPGAGVPGGGVPGAGVPGGGVPGAGVPGGGVPGAGVPGGGVPGAGVPGGGVPGAGVPGGGVPGAGVPGGGVPGAGVPGGGVPGAGVPGGGVPGAGVPGGGVPGAGVPGGGVPGAGVPGGGVPGAGVPGGGVPGAGVPGGGVPGAGVPGGGVPGAGVPGGGVPGAGVPGGGVPGAGVPGGGVPGAGVPGGGVP
As to B3, in data set [1], the “aggregation number (Nagg)” value is listed as “in the thousands of chains”, the “hydrodynamic radius (Rh)” value is reported as “over 100 nm”, the “radius of gyration (Rg)” value was “above 140 nm” and the “shape factor / form factor (Rg/Rh)” value is on record as “around 1.2”. Moreover, in data set [1], the Nagg is on record as 2240, the “Rg(nm)” value came out at 145.4 nm, the “Rh (nm)” value was 114.3 nm and the ρ was determined as 1.27. For the same molecule, the “cell fluorescence (Geometric Mean±StDev)” value in data set [3] is recorded as 24904±13884. Further, in data set [2], the “Rh (DLS at several temperatures)” value turned out to be 112 nm. In data set [4], the “core radius (cryo-TEM)” value is on record as 19.9 nm, the “spacing between particle cores (cryo-TEM)” value was determined as 34.7 nm, the “Spacing (nm)” value was 34.7 ± 4.2 nm and the “Core radius (nm)” value is recorded as 19.9 ± 2.8 nm. For the same molecule, in data set [4], the “Core Diameter (nm) [n = 30]” value was 39.4 ± 5.4 nm and the “Intra-core Spacing (nm) [n = 30]” value turned out to be 35.0 ± 4.5 nm.
